Measurements published in the RNAGym collection of RNA variant scans (doi:10.7554/elife.80360).

B1: HDV Ribozyme (parent)
chain: GGCCGGCAUGGUCCCAGCCUCCUCGCUGGCGCCGGCUGGGCAACAUUCCGAGGGGACCGUCCCCUCGGUAAUGGCGAAUGGGACCCA

Variants of: B1
Assay: self-cleavage, relative activity (ratio to wild type); higher = more cleavage; co-transcriptional

| Variant | self-cleavage |
| --- | --- |
| GGCCGGCAUGGUCCCAGCCUCCUCGCUGGCGCCGGCUGGGCAACAUUCCAAGGGGACCGUCUCCUCGGUAAUGGCGAAUGGGACCCA [G50A C62U] | 0.926 |
| GGCCGGCAUGGUCCCAGCCUCCUCGCUGGCGCCGGCUGGGCAACAUUCCAAGGGGACCGUCCCGUCGGUAAUGGCGAAUGGGACCCA [G50A C64G] | 0.404 |
| GGCCGGCAUGGUCCCAGCCUCCUCGCUGGCGCCGGCUGGGCAACAUUCCAAGGGGACCGUCCCAUCGGUAAUGGCGAAUGGGACCCA [G50A C64A] | 0.479 |
| GGCCGGCAUGGUCCCAGCCUCCUCGCUGGCGCCGGCUGGGCAACAUUCCAAGGGGACCGUCCCUUCGGUAAUGGCGAAUGGGACCCA [G50A C64U] | 1.26 |
| GGCCGGCAUGGUCCCAGCCUCCUCGCUGGCGCCGGCUGGGCAACAUUCCAAGGGGACCGUCCCCUCGGUAAUGGCGAAUGGUACCCA [G50A G82U] | 0.364 |
| GGCCGGCAUGGUCCCAGCCUCCUCGCUGGCGCCGGCUGGGCAACAUUCCAAGGGGACCGUCCCCUCGGUAAUGGCGAAUGGAACCCA [G50A G82A] | 0.614 |
| GGCCGGCAUGGUCCCAGCCUCCUCGCUGGCGCCGGCUGGGCAACAUUCCCAGGGGACCGUCCACUCGGUAAUGGCGAAUGGGACCCA [G50C C63A] | 0.305 |
| GGCCGGCAUGGUCCCAGCCUCCUCGCUGGCGCCGGCUGGGCAACAUUCCCAGGGGACCGUCCUCUCGGUAAUGGCGAAUGGGACCCA [G50C C63U] | 0.997 |
| GGCCGGCAUGGUCCCAGCCUCCUCGCUGGCGCCGGCUGGGCAACAUUCCCAGGGGACCGUCCGCUCGGUAAUGGCGAAUGGGACCCA [G50C C63G] | 0.135 |
| GGCCGGCAUGGUCCCAGCCUCCUCGCUGGCGCCGGCUGGGCAACAUUCCAAGGGGACCGUCCCCUAGGUAAUGGCGAAUGGGACCCA [G50A C66A] | 1.18 |
| GGCCGGCAUGGUCCCAGCCUCCUCGCUGGCGCCGGCUGGGCAACAUUCCAAGGGGACCGUCCCCUCGUUAAUGGCGAAUGGGACCCA [G50A G68U] | 0.767 |
| GGCCGGCAUGGUCCCAGCCUCCUCGCUGGCGCCGGCUGGGCAACAUUCCAAGGGGACCGUCCCCUCGGAAAUGGCGAAUGGGACCCA [G50A U69A] | 1.01 |
| GGCCGGCAUGGUCCCAGCCUCCUCGCUGGCGCCGGCUGGGCAACAUUCCCAGGGGACCGUCCCGUCGGUAAUGGCGAAUGGGACCCA [G50C C64G] | 0.383 |
| GGCCGGCAUGGUCCCAGCCUCCUCGCUGGCGCCGGCUGGGCAACAUUCCCAGGGGACCGUCCCCUCGGUAAUGGCGCAUGGGACCCA [G50C A77C] | 0.302 |
| GGCCGGCAUGGUCCCAGCCUCCUCGCUGGCGCCGGCUGGGCAACAUUCCCAGGGGACCGUCGCCUCGGUAAUGGCGAAUGGGACCCA [G50C C62G] | 0 |
| GGCCGGCAUGGUCCCAGCCUCCUCGCUGGCGCCGGCUGGGCAACAUUCCCAGGGGACCGUCACCUCGGUAAUGGCGAAUGGGACCCA [G50C C62A] | 0.475 |
| GGCCGGCAUGGUCCCAGCCUCCUCGCUGGCGCCGGCUGGGCAACAUUCCCAGGGGACCGUCUCCUCGGUAAUGGCGAAUGGGACCCA [G50C C62U] | 0.939 |
| GGCCGGCAUGGUCCCAGCCUCCUCGCUGGCGCCGGCUGGGCAACAUUCCCGGGGGACCGUCCCCUCGGUAAUGGCGAAUGGGACCCA [G50C A51G] | 1.07 |
| GGCCGGCAUGGUCCCAGCCUCCUCGCUGGCGCCGGCUGGGCAACAUUCCCUGGGGACCGUCCCCUCGGUAAUGGCGAAUGGGACCCA [G50C A51U] | 0.755 |
| GGCCGGCAUGGUCCCAGCCUCCUCGCUGGCGCCGGCUGGGCAACAUUCCAAGGGGACGGUCCCCUCGGUAAUGGCGAAUGGGACCCA [G50A C58G] | 0.909 |
| GGCCGGCAUGGUCCCAGCCUCCUCGCUGGCGCCGGCUGGGCAACAUUCCAAGGGGACAGUCCCCUCGGUAAUGGCGAAUGGGACCCA [G50A C58A] | 1.12 |
| GGCCGGCAUGGUCCCAGCCUCCUCGCUGGCGCCGGCUGGGCAACAUUCCAAGGGGACUGUCCCCUCGGUAAUGGCGAAUGGGACCCA [G50A C58U] | 0.919 |

| Variant | self-cleavage |
| --- | --- |
| GGCCGGCAUGGUCCCAGCCUCCUCGCUGGCGCCGGCUGGGCAACAUUCCAAGGGGACCUUCCCCUCGGUAAUGGCGAAUGGGACCCA [G50A G59U] | 1.18 |
| GGCCGGCAUGGUCCCAGCCUCCUCGCUGGCGCCGGCUGGGCAACAUUCCAAGGGGACCAUCCCCUCGGUAAUGGCGAAUGGGACCCA [G50A G59A] | 1.03 |
| GGCCGGCAUGGUCCCAGCCUCCUCGCUGGCGCCGGCUGGGCAACAUUCCAAGGGGACCGUCCCCUCGGUAAUGUCGAAUGGGACCCA [G50A G74U] | 0.483 |
| GGCCGGCAUGGUCCCAGCCUCCUCGCUGGCGCCGGCUGGGCAACAUUCCAAGGGGACCGUCCCCUCGGUAAUGGCGAAUGGGACUCA [G50A C85U] | 0.938 |
| GGCCGGCAUGGUCCCAGCCUCCUCGCUGGCGCCGGCUGGGCAACAUUCCAAGGGGACCGUCCCCUCGGUAAUGGCGAAUGGGACACA [G50A C85A] | 0.941 |
| GGCCGGCAUGGUCCCAGCCUCCUCGCUGGCGCCGGCUGGGCAACAUUCCCAGGGGACCGUGCCCUCGGUAAUGGCGAAUGGGACCCA [G50C C61G] | 0.578 |
| GGCCGGCAUGGUCCCAGCCUCCUCGCUGGCGCCGGCUGGGCAACAUUCCCAGGGGACCGUUCCCUCGGUAAUGGCGAAUGGGACCCA [G50C C61U] | 0.749 |
| GGCCGGCAUGGUCCCAGCCUCCUCGCUGGCGCCGGCUGGGCAACAUUCCCAGGGGACAGUCCCCUCGGUAAUGGCGAAUGGGACCCA [G50C C58A] | 1 |
| GGCCGGCAUGGUCCCAGCCUCCUCGCUGGCGCCGGCUGGGCAACAUUCCAAGCGGACCGUCCCCUCGGUAAUGGCGAAUGGGACCCA [G50A G53C] | 0.759 |
| GGCCGGCAUGGUCCCAGCCUCCUCGCUGGCGCCGGCUGGGCAACAUUCCAAGUGGACCGUCCCCUCGGUAAUGGCGAAUGGGACCCA [G50A G53U] | 0.727 |
| GGCCGGCAUGGUCCCAGCCUCCUCGCUGGCGCCGGCUGGGCAACAUUCCAAGAGGACCGUCCCCUCGGUAAUGGCGAAUGGGACCCA [G50A G53A] | 0.803 |
| GGCCGGCAUGGUCCCAGCCUCCUCGCUGGCGCCGGCUGGGCAACAUUCCAAGGGGACCGUACCCUCGGUAAUGGCGAAUGGGACCCA [G50A C61A] | 0.875 |
| GGCCGGCAUGGUCCCAGCCUCCUCGCUGGCGCCGGCUGGGCAACAUUCCCAGGGGACCGUCCCCUCGGUACUGGCGAAUGGGACCCA [G50C A71C] | 0.252 |
| GGCCGGCAUGGUCCCAGCCUCCUCGCUGGCGCCGGCUGGGCAACAUUCCCAGGGGACCGUCCCCUCGGUAUUGGCGAAUGGGACCCA [G50C A71U] | 0.554 |
| GGCCGGCAUGGUCCCAGCCUCCUCGCUGGCGCCGGCUGGGCAACAUUCCCAGGGGACCGUCCCCUCGGUCAUGGCGAAUGGGACCCA [G50C A70C] | 0.517 |
| GGCCGGCAUGGUCCCAGCCUCCUCGCUGGCGCCGGCUGGGCAACAUUCCCAGGGGACCGUCCCCUCGGUUAUGGCGAAUGGGACCCA [G50C A70U] | 0.8 |
| GGCCGGCAUGGUCCCAGCCUCCUCGCUGGCGCCGGCUGGGCAACAUUCCCAGGGGACCGUCCCCUCGGUGAUGGCGAAUGGGACCCA [G50C A70G] | 0.917 |
| GGCCGGCAUGGUCCCAGCCUCCUCGCUGGCGCCGGCUGGGCAACAUUCCAAGGGGACCGUCCACUCGGUAAUGGCGAAUGGGACCCA [G50A C63A] | 0.436 |
| GGCCGGCAUGGUCCCAGCCUCCUCGCUGGCGCCGGCUGGGCAACAUUCCAAGGGGACCGUCCGCUCGGUAAUGGCGAAUGGGACCCA [G50A C63G] | 0.0475 |
| GGCCGGCAUGGUCCCAGCCUCCUCGCUGGCGCCGGCUGGGCAACAUUCCAAGGGGACCGUCCCCUCGGUAAUGGAGAAUGGGACCCA [G50A C75A] | 0.178 |
| GGCCGGCAUGGUCCCAGCCUCCUCGCUGGCGCCGGCUGGGCAACAUUCCAAGGGGACCGUCCCCUCGGUAAUGGUGAAUGGGACCCA [G50A C75U] | 0.178 |
| GGCCGGCAUGGUCCCAGCCUCCUCGCUGGCGCCGGCUGGGCAACAUUCCAAGGGGACCGUCCCCUCGGUAAUGGCGAAUGGGACCCU [G50A A87U] | 1.08 |

| Variant | self-cleavage |
| --- | --- |
| GGCCGGCAUGGUCCCAGCCUCCUCGCUGGCGCCGGCUGGGCAACAUUCCAAGGAGACCGUCCCCUCGGUAAUGGCGAAUGGGACCCA [G50A G54A] | 0.726 |
| GGCCGGCAUGGUCCCAGCCUCCUCGCUGGCGCCGGCUGGGCAACAUUCCAAGGGGACCGUCCCCUCGGUAAUGGCGAAUGGGGCCCA [G50A A83G] | 0.99 |
| GGCCGGCAUGGUCCCAGCCUCCUCGCUGGCGCCGGCUGGGCAACAUUCCAAGGGGACCGUCCCCUCGGUAAUGGCGAAUGGGUCCCA [G50A A83U] | 0.486 |
| GGCCGGCAUGGUCCCAGCCUCCUCGCUGGCGCCGGCUGGGCAACAUUCCAAGGGGACCGUCCCCUCGGUAACGGCGAAUGGGACCCA [G50A U72C] | 0.45 |
| GGCCGGCAUGGUCCCAGCCUCCUCGCUGGCGCCGGCUGGGCAACAUUCCAAGGGGACCGUCCCCGCGGUAAUGGCGAAUGGGACCCA [G50A U65G] | 0.95 |
| GGCCGGCAUGGUCCCAGCCUCCUCGCUGGCGCCGGCUGGGCAACAUUCCAAGGGGACCGUCCCCCCGGUAAUGGCGAAUGGGACCCA [G50A U65C] | 0.769 |
| GGCCGGCAUGGUCCCAGCCUCCUCGCUGGCGCCGGCUGGGCAACAUUCCAACGGGACCGUCCCCUCGGUAAUGGCGAAUGGGACCCA [G50A G52C] | 0.672 |
| GGCCGGCAUGGUCCCAGCCUCCUCGCUGGCGCCGGCUGGGCAACAUUCCAAGGGGACCGGCCCCUCGGUAAUGGCGAAUGGGACCCA [G50A U60G] | 0.514 |
| GGCCGGCAUGGUCCCAGCCUCCUCGCUGGCGCCGGCUGGGCAACAUUCCAAGGGGACCGCCCCCUCGGUAAUGGCGAAUGGGACCCA [G50A U60C] | 0.945 |
| GGCCGGCAUGGUCCCAGCCUCCUCGCUGGCGCCGGCUGGGCAACAUUCCAAGGGGACCGUCCCCUCGGUAAUGGCGAAUCGGACCCA [G50A G80C] | 0.284 |
| GGCCGGCAUGGUCCCAGCCUCCUCGCUGGCGCCGGCUGGGCAACAUUCCAAGGGGACCGUCCCCUCGGUAAUGGCGAAUAGGACCCA [G50A G80A] | 0.415 |
| GGCCGGCAUGGUCCCAGCCUCCUCGCUGGCGCCGGCUGGGCAACAUUCCAAGGGAACCGUCCCCUCGGUAAUGGCGAAUGGGACCCA [G50A G55A] | 0.783 |
| GGCCGGCAUGGUCCCAGCCUCCUCGCUGGCGCCGGCUGGGCAACAUUCCCAGGGGAACGUCCCCUCGGUAAUGGCGAAUGGGACCCA [G50C C57A] | 1.04 |
| GGCCGGCAUGGUCCCAGCCUCCUCGCUGGCGCCGGCUGGGCAACAUUCCCAGGGGACCGUCCCCUCGGUAAUGGCGAAUGGGUCCCA [G50C A83U] | 0.504 |
| GGCCGGCAUGGUCCCAGCCUCCUCGCUGGCGCCGGCUGGGCAACAUUCCCAGGGGACCGUCCCCUCGGUAAUGGCGAAUGGGGCCCA [G50C A83G] | 0.491 |
| GGCCGGCAUGGUCCCAGCCUCCUCGCUGGCGCCGGCUGGGCAACAUUCCAAGGGGACCGUCCCCUCGGUAAUGGCGAAGGGGACCCA [G50A U79G] | 0.629 |
| GGCCGGCAUGGUCCCAGCCUCCUCGCUGGCGCCGGCUGGGCAACAUUCCAAGGGGACCGUCCCCUCGGUAAUGGCGAACGGGACCCA [G50A U79C] | 0.486 |
| GGCCGGCAUGGUCCCAGCCUCCUCGCUGGCGCCGGCUGGGCAACAUUCCAAGGGGACCGUCCCCUCGGUAAUGGCGAAAGGGACCCA [G50A U79A] | 0.88 |
| GGCCGGCAUGGUCCCAGCCUCCUCGCUGGCGCCGGCUGGGCAACAUUCCAAGGGGACCGUCCCCUCGGUAAUGGCCAAUGGGACCCA [G50A G76C] | 0.98 |
| GGCCGGCAUGGUCCCAGCCUCCUCGCUGGCGCCGGCUGGGCAACAUUCCAAGGGGACCGUCCCCUCGGUAAUGGCAAAUGGGACCCA [G50A G76A] | 1.05 |
